B1: unnamed (parent)
chain 1: MELIRIAMKKDLENDNSLMNKWATVAGLKNPNPLYDFLNHDGKTFNEFSSIVNIVKSQYPDREYELMKDYCLNLDVKTKAARSALEYADANMFFEIEDVLIDSMISCSNMKSKEYGKVYKIHRELSNSVITEFEAVKRLGKLNIKTPEMNSFSRLLLLYHYLSTGNFSPMAQLIKQIDLSEISENMYIRNTYQTRVHVLMSNIKLNENSLEECREYSKKALESTNILRFQVFSYLTIGNSLLFSNYELAQENFLKGLSISVQNENYNMIFQQALCFLNNVWRKENKWINFESDSIMDLQEQAHCFINFNENSKAKEVLDKLDLLVHNDNELAMHYYLKGRLEQNKACFYSSIEYFKKSNDKFLIRLPLLELQKMGENQKLLELLLL
chain 2: not shown

Variants of: B1
Assay: thermal shift assay
Conditions: with partner chain of the complex shown; AimR + AimP; one of three independent experiments

Row | Variant | screen value [°C]
1 | chain 1 D360A | 44.4
2 | chain 1 N202A | 50.9

— article PMC6458997, “Deciphering the Molecular Mechanism Underpinning Phage Arbitrium Communication Systems” (Molecular Cell, 2019)
